From the supplement of paper PMC7125110
± gives the standard error. Fewer inactive variants are shown than the library holds.

B1: glmS ribozyme (parent)
chain: AUAAAAGCGCCAGAACUACAGAAAUGUAGUUGACGAGGAGGAGGUUUAUCGAAUUUUCGGCGGAUGCCUCCAAA

Variants of: B1
Test: self-cleavage kobs at 10000 uM GlcN6P; higher = faster cleavage; RNA array
Details: with glucosamine-6-phosphate
Summary of the method: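 Over ~14 h at 37 °C, tiles were imaged as glucosamine-6-phosphate (40 μM to 10 mM) in HEPES/KCl/Mg(OAc)2 buffer flowed across sequenced MiSeq chips. The chips carried barcoded ribozyme variants transcribed in situ by E. coli RNA polymerase and tracked with a hybridised Cy3 probe. After normalisation to baseline and to non-cleaving reference variants, one- or two-exponential decay fits of per-tile medians gave kobs. kcat and KM followed from weighted Michaelis–Menten fits across concentrations.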

Variant	self-cleavage kobs at 10000 uM GlcN6P [s⁻¹]
A12C U69A C71U	4.87e-05 ± 1.6e-05
C16A G29A C50A G59A C71U	< 1e-05
A12C U46C G51U U54A	< 1e-05
G32C G37U G44C A52C	< 1e-05
C11G U25C A53U A64U	< 1e-05
A15C U30C G62U	< 1e-05
A15U U55G G63U C67U	< 1e-05
G26U G44U	0.000189 ± 3.6e-05
U30C G51A C67G	< 1e-05
A15C G43C G51A C58G	< 1e-05
A12C U57G	5.46e-05 ± 1.2e-05
U30A A39C	0.00136 ± 0.00028
G29U U55C U57A	4.36e-05 ± 1.5e-05
A12U U30C G32A A52U U65G C70G	< 1e-05
A14G G40C G41U	0.000186 ± 4e-05
G35C U47A G66U	< 1e-05
A12G C16G C34G U55G	< 1e-05
C10U A15G G35A	< 1e-05
A12U C16A C58A	7.98e-05 ± 1.6e-05
G32C U54A C68G	6.46e-05 ± 2e-05
G32A G40U C67U	< 1e-05

Variant	self-cleavage kobs at 10000 uM GlcN6P [s⁻¹]
U31A U46G U56G	0.00127 ± 0.00022
C16U U31A U45A	0.00606 ± 0.0026
G32A U45G U49G C71G	< 1e-05
U31G G38A A53C U65C	< 1e-05
A36U U49G G63C	< 1e-05
C10G U30A G37C A39U G62A	< 1e-05
G29A U31A U45G	0.000217 ± 4.5e-05
A36C U54C G60U C61A G62U	< 1e-05
C16A U31C U55A	0.000194 ± 3.1e-05
C11G G66C	< 1e-05
G13A A42U U49G C58U	< 1e-05
G32A U56A C67G	0.000139 ± 2e-05
A15U U30G G60C	< 1e-05
U30G G41U G43A A48C C71U	< 1e-05
C16U A42U A52C	< 1e-05
C11U C50A G66A	< 1e-05
A12C G32A G35A G51C	< 1e-05
U30G A42G G62U	< 1e-05
G35U G40C G59C G62A U69C	< 1e-05
A14G A33U A39U	4.23e-05 ± 1.4e-05
A36U C68G C71U	5.72e-05 ± 2.3e-05

Variant	self-cleavage kobs at 10000 uM GlcN6P [s⁻¹]
G32U U54C C70A	4.27e-05 ± 1.5e-05
U30A U45C	0.000307 ± 8.9e-05
C10U A39C C61U C68G	< 1e-05
A15G C50G C68A	7.87e-05 ± 1.6e-05
A14U G37A G43C G59C	< 1e-05
A33C A52C U57G G63A	< 1e-05
C16G U55G C58U	5.56e-05 ± 2.5e-05
C16A G35C A39U	< 1e-05
G13C G35C U49C	< 1e-05
A12G A15U U31G	0.000128 ± 2.3e-05
G13A A22U U45G	7.33e-05 ± 1e-05
C34A U46A G51A	< 1e-05
A14U C34G C71U	< 1e-05
A14C A42G C61A	< 1e-05
A12U G32U U54C	0.000319 ± 5.4e-05
A33C C68G	< 1e-05
A14C C50G G62U C67G	6.05e-05 ± 1.8e-05
A12G U45A U55A	0.00202 ± 0.00039
C16G U54C C67U	0.000749 ± 0.00015
A15G U55G C58A	0.000435 ± 8.3e-05
C11G G13C G44A	< 1e-05

Variant	self-cleavage kobs at 10000 uM GlcN6P [s⁻¹]
A12G U65G C70U	0.000133 ± 1.7e-05
A14U A52U U54C	0.000114 ± 1.6e-05
G13A A42C G60C	< 1e-05
A12U A33C U47C C67G	< 1e-05
C16G A33G C58G	< 1e-05
C10G G29U U55C	< 1e-05
G37A A52G C67U	5.39e-05 ± 2.2e-05
A36G A64G C70G	< 1e-05
G29C G32A U54A	0.000923 ± 0.00011
G35C U45A C58G	< 1e-05
A15G A39G U55A C58U	2.43e-05 ± 1.1e-05
A15G G29C G44C	< 1e-05
C11G A64C C67G	< 1e-05
G32U U47G C70G	0.00012 ± 3.4e-05
A12C C16U A52U	0.000334 ± 6.5e-05
G32A U54C U56C C58A	9.78e-05 ± 2.1e-05
A12C U56G C70G	5.35e-05 ± 1.3e-05
A15U U56G C71A	0.000528 ± 0.00016
C16U U55G C68G	5.93e-05 ± 1.5e-05
A15U G32U G66A	0.000174 ± 4e-05
A15C A33G A48C A64U	< 1e-05
